US20240239884A1 (Merck Sharp & Dohme, published 2024)

What was measured:
[1] = target: T1, human IL-23 (human, UniProt P29460 23-328); assay: equilibrium binding ELISA on plates coated with human IL-23; potency against reference material; storage at 5 C, initial
T1 construct: also called human IL-23 cytokine; human IL-23 protein
T1 sequence 1: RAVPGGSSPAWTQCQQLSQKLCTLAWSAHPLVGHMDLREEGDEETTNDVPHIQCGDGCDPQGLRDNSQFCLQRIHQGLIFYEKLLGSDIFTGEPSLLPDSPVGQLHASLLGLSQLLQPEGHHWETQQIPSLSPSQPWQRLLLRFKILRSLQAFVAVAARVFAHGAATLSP
T1 sequence 2: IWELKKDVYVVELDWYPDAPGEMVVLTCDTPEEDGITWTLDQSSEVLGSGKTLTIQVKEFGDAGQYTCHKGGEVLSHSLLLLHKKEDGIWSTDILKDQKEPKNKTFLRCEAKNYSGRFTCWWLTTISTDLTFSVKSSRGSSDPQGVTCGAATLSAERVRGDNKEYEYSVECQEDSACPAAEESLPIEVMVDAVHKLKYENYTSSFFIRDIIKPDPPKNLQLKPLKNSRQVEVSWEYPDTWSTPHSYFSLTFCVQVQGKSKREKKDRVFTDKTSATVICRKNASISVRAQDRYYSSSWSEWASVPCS
Description: (§1) The affinity of hum13B8-b in the formulations of the present invention for human IL-23 is assessed in an equilibrium binding ELISA, where serial dilutions of reference material and test samples are applied to assay plates coated with human IL-23 cytokine. This assay may be used, for example, to assess retention of biological activity in various potential therapeutic formulations. Relative potency of the test sample is assessed by comparison of the dose response curve of the test sample to the dose response curve of reference material and calculated as percent of reference.
(§2) ELISAs are performed by methods well known in the art. Briefly, serial dilutions of hum13B8-b in a formulation of the present invention are added to wells of a microtiter plate that had been previously coated with human IL-23 protein and then blocked. After an incubation period, wells are washed and a peroxidase-conjugated goat anti-human IgG (Fc) detection antibody reagent is added. Wells are again washed, and a chemiluminescent peroxidase substrate is added. Signal is read out by chemiluminescence. […] Relative biological potency is calculated by comparing results obtained with test samples with a standard curve based on signal levels obtained with a reference sample. […]

[2] = target: T1, human IL-23; assay: equilibrium binding ELISA on plates coated with human IL-23; potency against reference material; storage at 5 C, 12 months (second Binding ELISA row)
Description: as §1, §2

[3] = target: T1, human IL-23; assay: equilibrium binding ELISA on plates coated with human IL-23; potency against reference material; storage at 5 C, 18 months (second Binding ELISA row)
Description: as §1, §2

[4] = target: T1, human IL-23; assay: equilibrium binding ELISA on plates coated with human IL-23; potency against reference material; storage condition 25H table, initial
Description: as §1, §2

[5] = target: T1, human IL-23; assay: equilibrium binding ELISA on plates coated with human IL-23; potency against reference material; storage at 5 C, 6 months
Description: as §1, §2

[6] = target: T1, human IL-23; assay: equilibrium binding ELISA on plates coated with human IL-23; potency against reference material; storage condition RH4 table, initial
Description: as §1, §2

[7] = target: T1, human IL-23; assay: equilibrium binding ELISA on plates coated with human IL-23; potency against reference material; storage at RH4 (40 C/75% RH), 6 months
Description: as §1, §2

[8] = target: T1, human IL-23; assay: equilibrium binding ELISA on plates coated with human IL-23; potency against reference material; storage at 25H (25 C/60% RH), 6 months
Description: as §1, §2

[9] = target: T1, human IL-23; assay: equilibrium binding ELISA on plates coated with human IL-23; potency against reference material; storage at 25H (25 C/60% RH), 12 months (second Binding ELISA row)
Description: as §1, §2

[10] = target: T1, human IL-23; assay: equilibrium binding ELISA on plates coated with human IL-23; potency against reference material; storage at 5 C, 24 months (second Binding ELISA row)
Description: as §1, §2

B1: humanized anti-IL-23p19 antibody 13B8-b (antibody, human IgG1, kappa, V domains shown)
VH: QVQLVQSGAEVKKPGASVKVSCKASGYIFITYWMTWVRQAPGQGLEWMGQIFPASGSADYNEKFEGRVTMTTDTSTSTAYMELRSLRSDDTAVYYCARGGGGFAYWGQGTLVTVSS
VL: DIQMTQSPSSLSASVGDRVTITCRTSENIYSYLAWYQQKPGKAPKLLIYNAKTLAEGVPSRFSGSGSGTDFTLTISSLQPEDFATYYCQHHYGIPFTFGQGTKVEIKR
notes: Made in CHO cells; Tested as a stored formulation (10 mM histidine pH 6.0, 7% sucrose, 0.05% polysorbate 80, about 100 mg/ml); also called hum13B8-b; anti-IL-23p19 mAb hum13B8-b
- Binding ELISA Potency relative to control [%] [1]: 112%
- Binding ELISA Potency relative to control [%] [2]: 98%
- Binding ELISA Potency relative to control [%] [3]: 100%
- Binding ELISA Potency relative to control [%] [4]: 112%
- Binding ELISA Potency relative to control [%] [5]: 96%
- Binding ELISA Potency relative to control [%] [6]: 112%
- Binding ELISA Potency relative to control [%] [7]: 104%
- Binding ELISA Potency relative to control [%] [8]: 99%
- Binding ELISA Potency relative to control [%] [9]: 105%
- Binding ELISA Potency relative to control [%] [10]: 103%
